T1: human IL-18Rβ on cells (human, UniProt O95256 20-599)
T1 sequence: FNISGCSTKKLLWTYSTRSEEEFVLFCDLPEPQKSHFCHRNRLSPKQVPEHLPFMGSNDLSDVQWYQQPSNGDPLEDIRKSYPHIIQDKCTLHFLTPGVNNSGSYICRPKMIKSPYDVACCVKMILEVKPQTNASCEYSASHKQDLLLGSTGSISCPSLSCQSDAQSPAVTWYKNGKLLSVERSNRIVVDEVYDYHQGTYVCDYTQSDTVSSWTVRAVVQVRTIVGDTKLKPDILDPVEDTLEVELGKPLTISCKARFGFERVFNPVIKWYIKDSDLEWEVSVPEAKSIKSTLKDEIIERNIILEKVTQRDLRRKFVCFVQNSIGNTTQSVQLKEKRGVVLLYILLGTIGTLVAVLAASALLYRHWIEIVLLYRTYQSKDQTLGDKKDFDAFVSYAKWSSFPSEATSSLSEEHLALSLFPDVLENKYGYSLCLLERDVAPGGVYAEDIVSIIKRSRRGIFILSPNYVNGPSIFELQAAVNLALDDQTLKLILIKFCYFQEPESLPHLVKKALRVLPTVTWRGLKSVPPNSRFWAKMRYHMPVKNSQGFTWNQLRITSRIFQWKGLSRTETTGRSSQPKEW

T2: cyIL-18Rβ-HisAvi (cynomolgus monkey)
T2 construct: Soluble analyte in SPR; also called cyno IL-18Rβ; cynomolgus monkey IL-18Rβ
T2 chain: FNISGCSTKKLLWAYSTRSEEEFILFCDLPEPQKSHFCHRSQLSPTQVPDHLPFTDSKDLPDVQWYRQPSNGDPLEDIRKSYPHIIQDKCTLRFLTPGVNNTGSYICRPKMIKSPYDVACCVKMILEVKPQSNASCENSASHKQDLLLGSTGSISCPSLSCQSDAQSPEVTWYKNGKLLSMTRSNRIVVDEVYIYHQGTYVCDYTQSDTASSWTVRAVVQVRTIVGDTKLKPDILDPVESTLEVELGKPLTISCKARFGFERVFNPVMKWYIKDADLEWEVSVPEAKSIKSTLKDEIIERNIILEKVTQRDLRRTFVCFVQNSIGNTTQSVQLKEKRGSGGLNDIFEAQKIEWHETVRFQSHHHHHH

T3: huIL-18Rβ-HisAvi (human, UniProt O95256 20-356, biotinylated in the Octet blocking assay)
T3 construct: Soluble analyte in all SPR runs; captured on streptavidin sensors in the Octet assay; also called human IL-18Rβ; human IL-18Rβ-Avi-His
T3 sequence: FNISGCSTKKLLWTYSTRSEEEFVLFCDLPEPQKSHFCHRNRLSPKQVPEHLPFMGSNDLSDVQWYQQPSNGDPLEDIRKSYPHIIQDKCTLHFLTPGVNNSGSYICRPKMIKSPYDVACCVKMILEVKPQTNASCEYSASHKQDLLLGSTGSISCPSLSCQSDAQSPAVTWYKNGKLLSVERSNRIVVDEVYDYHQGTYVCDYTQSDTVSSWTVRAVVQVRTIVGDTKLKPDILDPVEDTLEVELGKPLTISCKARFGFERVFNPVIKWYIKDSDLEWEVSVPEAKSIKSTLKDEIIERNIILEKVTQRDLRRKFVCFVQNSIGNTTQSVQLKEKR


Experiments:
human IL-18Rβ on cells [1] = target: T1, human IL-18Rβ on cells; assay: cell-based or functional assay
cyIL-18Rβ-HisAvi [2] = target: T2, cyIL-18Rβ-HisAvi; assay: SPR T200, mAb on anti-hFc, 37C, pH 7.4
huIL-18Rβ-HisAvi [3] = target: T3, huIL-18Rβ-HisAvi; assay: SPR T200, mAb on anti-hFc, 37C, pH 7.4
cyIL-18Rβ-HisAvi [4] = target: T2, cyIL-18Rβ-HisAvi; assay: SPR T200, mAb on anti-hFc, 37C, pH 6
huIL-18Rβ-HisAvi [5] = target: T3, huIL-18Rβ-HisAvi; assay: SPR T200, mAb on anti-hFc, 37C, pH 6
cyIL-18Rβ-HisAvi [6] = target: T2, cyIL-18Rβ-HisAvi; assay: SPR T200, mAb on anti-hFc, 37C, pH 6
huIL-18Rβ-HisAvi [7] = target: T3, huIL-18Rβ-HisAvi; assay: SPR T200, mAb on anti-hFc, 37C, pH 6; remark: listed apart in the source
cyIL-18Rβ-HisAvi [8] = target: T2, cyIL-18Rβ-HisAvi; assay: SPR T200, mAb on anti-hFc, 37C, pH 7.4
huIL-18Rβ-HisAvi [9] = target: T3, huIL-18Rβ-HisAvi; assay: SPR T200, mAb on anti-hFc, 37C, pH 7.4; remark: listed apart in the source
human IL-18Rβ on cells [10] = target: T1, human IL-18Rβ on cells; assay: cell-based or functional assay; remark: listed apart in the source

Row | Binder | IC50, LPS+IL-12 dependent IFNg production, human whole blood (human IL-18Rβ on cells [1]) [nM] | Kd (cyIL-18Rβ-HisAvi [2]) [nM] | koff (cyIL-18Rβ-HisAvi [2]) [s⁻¹] | kon (cyIL-18Rβ-HisAvi [2]) [M⁻¹ s⁻¹] | Kd (huIL-18Rβ-HisAvi [3]) [nM] | koff (huIL-18Rβ-HisAvi [3]) [s⁻¹] | kon (huIL-18Rβ-HisAvi [3]) [M⁻¹ s⁻¹] | Kd (cyIL-18Rβ-HisAvi [4]) [nM] | koff (cyIL-18Rβ-HisAvi [4]) [s⁻¹] | kon (cyIL-18Rβ-HisAvi [4]) [M⁻¹ s⁻¹] | Kd (huIL-18Rβ-HisAvi [5]) [nM] | koff (huIL-18Rβ-HisAvi [5]) [s⁻¹] | kon (huIL-18Rβ-HisAvi [5]) [M⁻¹ s⁻¹] | Kd (cyIL-18Rβ-HisAvi [6]) [nM] | koff (cyIL-18Rβ-HisAvi [6]) [s⁻¹] | kon (cyIL-18Rβ-HisAvi [6]) [M⁻¹ s⁻¹] | Kd (huIL-18Rβ-HisAvi [7]) [nM] | koff (huIL-18Rβ-HisAvi [7]) [s⁻¹] | kon (huIL-18Rβ-HisAvi [7]) [M⁻¹ s⁻¹] | Kd (cyIL-18Rβ-HisAvi [8]) [nM] | also measured
1 | P21-V2 (antibody, human IgG1, kappa, name in Kabat numbering, built from the chains of the parent P21 with the printed mutation) heavy: QVQLQQSGPGLVKPSETLSLTCTVSGGSISNYYWTWIRQPPGKGLEWIGYISDSGSTNYNPSLKSRVTISVDTSKNQFSLKLSSVTAADTAVYYCARETIVVRGFYFYVMDVWGQGTTVTVSSASTKGPSVFPLAPSSKSTSGGTAALGCLVKDYFPEPVTVSWNSGALTSGVHTFPAVLQSSGLYSLSSVVTVPSSSLGTQTYICNVNHKPSNTKVDKRVEPKSCDKTHTCPPCPAPEAEGAPSVFLFPPKPKDTLMISRTPEVTCVVVDVSHEDPEVKFNWYVDGVEVHNAKTKPREEQYNSTYRVVSVLTVLHQDWLNGKEYKCKVSNKALPAPIEKTISKAKGQPREPQVYTLPPSREEMTKNQVSLTCLVKGFYPSDIAVEWESNGQPENNYKTTPPVLDSDGSFFLYSKLTVDKSRWQQGNVFSCSVMHEALHNHYTQKSLSLSPG light: not shown | 1.65 | 22 | 0.0032 | 150000 | 2.3 | 0.00053 | 230000 | 14 | 0.0022 | 160000 | 0.7 | 0.00043 | 610000 |  |  |  |  |  |  |  | 
2 | P21-V3 (antibody, human IgG1, kappa, name in Kabat numbering, built from the chains of the parent P21 with the printed mutations) heavy: QVQLQESGPGLVKPSETLSLTCTVSGGSISNYYWTWIRQPPGKGLEWIGYISDSGSTNYNPSLKSRVTISVDTSKNQFSLKLSSVTAADTAVYYCARETIVVRGFYFYVMDVWGQGTTVTVSSASTKGPSVFPLAPSSKSTSGGTAALGCLVKDYFPEPVTVSWNSGALTSGVHTFPAVLQSSGLYSLSSVVTVPSSSLGTQTYICNVNHKPSNTKVDKRVEPKSCDKTHTCPPCPAPEAEGAPSVFLFPPKPKDTLMISRTPEVTCVVVDVSHEDPEVKFNWYVDGVEVHNAKTKPREEQYNSTYRVVSVLTVLHQDWLNGKEYKCKVSNKALPAPIEKTISKAKGQPREPQVYTLPPSREEMTKNQVSLTCLVKGFYPSDIAVEWESNGQPENNYKTTPPVLDSDGSFFLYSKLTVDKSRWQQGNVFSCSVMHEALHNHYTQKSLSLSPG light: not shown | 1.63 | 17 | 0.0027 | 160000 | 2.3 | 0.00054 | 240000 | 8.4 | 0.0016 | 190000 | 0.66 | 0.00039 | 590000 | 8.4 | 0.0016 | 190000 | 0.66 | 0.00039 | 590000 | 17 | koff (cyIL-18Rβ-HisAvi [8]): 0.0027 s⁻¹; kon (cyIL-18Rβ-HisAvi [8]): 160000 M⁻¹ s⁻¹; Kd (huIL-18Rβ-HisAvi [9]): 2.3 nM; koff (huIL-18Rβ-HisAvi [9]): 0.00054 s⁻¹; kon (huIL-18Rβ-HisAvi [9]): 240000 M⁻¹ s⁻¹
3 | P20-V2 (antibody, human IgG1, kappa, V domains shown, Variant of P20) VH: QVQLQESGPGLVKPSETLSLTCTVSGGSINNYYWSWIRQPPGKGLEWIGYIFYSGTTNYNPSLKSRVTISVDTSKNQFSLKLSSVTAADTAVYYCARDVGIAARNSYYYVMDVWGQGTTVTVSS VL: AIQLTQSPSSLSASVGDRVTITCRASQGISSALAWYQQKPGKAPKFLIYEGSSLESGVPSRFSGSGSGTDFTLTISSLQPEDFATYYCQQFNSYPITFGQGTRLEIKR |  |  |  |  |  |  |  |  |  |  |  |  |  | 1.4 | 0.00023 | 160000 | 0.29 | 0.00013 | 440000 | 0.92 | Average IC50, LPS+IL-12 dependent IFNg production, human whole blood (human IL-18Rβ on cells [10]): 0.37 nM; koff (cyIL-18Rβ-HisAvi [8]): 0.00016 s⁻¹; kon (cyIL-18Rβ-HisAvi [8]): 180000 M⁻¹ s⁻¹; Kd (huIL-18Rβ-HisAvi [9]): 0.24 nM; koff (huIL-18Rβ-HisAvi [9]): 8.9e-05 s⁻¹; kon (huIL-18Rβ-HisAvi [9]): 360000 M⁻¹ s⁻¹
4 | P20-V6 (antibody, human IgG1, kappa, name in Kabat numbering, built from the chains of the parent P20 with the printed mutation) heavy: QVQLQESGPGLVKPSETLSLTCTVSGGSINNYYWSWIRQPPGKGLEWIGYIFYSGTTNYNPSLKSRVTISVDTSKNQFSLKLSSVTAADTAVYYCARDVGIAARNSYYYVMDVWGQGTTVTVSSASTKGPSVFPLAPSSKSTSGGTAALGCLVKDYFPEPVTVSWNSGALTSGVHTFPAVLQSSGLYSLSSVVTVPSSSLGTQTYICNVNHKPSNTKVDKRVEPKSCDKTHTCPPCPAPEAEGAPSVFLFPPKPKDTLMISRTPEVTCVVVDVSHEDPEVKFNWYVDGVEVHNAKTKPREEQYNSTYRVVSVLTVLHQDWLNGKEYKCKVSNKALPAPIEKTISKAKGQPREPQVYTLPPSREEMTKNQVSLTCLVKGFYPSDIAVEWESNGQPENNYKTTPPVLDSDGSFFLYSKLTVDKSRWQQGNVFSCSVMHEALHNHYTQKSLSLSPG light: AIQLTQSPSSLSASVGDRVTITCRASQGISSALAWYQQKPGKAPKFLIYDASSLESGVPSRFSGSGSGTDFTLTISSLQPEDFATYYCQQFNSYPITFGQGTRLEIKRTVAAPSVFIFPPSDEQLKSGTASVVCLLNNFYPREAKVQWKVDNALQSGNSQESVTEQDSKDSTYSLSSTLTLSKADYEKHKVYACEVTHQGLSSPVTKSFNRGEC | 0.85 | 2.9 | 0.00032 | 110000 | 1 | 0.00022 | 210000 | 0.61 | 0.00015 | 250000 | 0.13 | 6.8e-05 | 520000 | 0.61 | 0.00015 | 250000 | 0.13 | 6.8e-05 | 520000 | 2.9 | koff (cyIL-18Rβ-HisAvi [8]): 0.00032 s⁻¹; kon (cyIL-18Rβ-HisAvi [8]): 110000 M⁻¹ s⁻¹; Kd (huIL-18Rβ-HisAvi [9]): 1 nM; koff (huIL-18Rβ-HisAvi [9]): 0.00022 s⁻¹; kon (huIL-18Rβ-HisAvi [9]): 210000 M⁻¹ s⁻¹
5 | P8-V2 (antibody, human IgG1, kappa, name in Kabat numbering, built from the chains of the parent P8 with the printed mutations) heavy: QVQLVQSGAEVKKPGASVKVSCKASGYTFTSYYMHWVRQAPGQGLEWMGIINPRGGYTTYAQKFQGRVTMTRDTSTSTVYMELSSLRSEDTAVYYCAKEGRVSPTDYYGMDVWGQGTTVTVSSASTKGPSVFPLAPSSKSTSGGTAALGCLVKDYFPEPVTVSWNSGALTSGVHTFPAVLQSSGLYSLSSVVTVPSSSLGTQTYICNVNHKPSNTKVDKRVEPKSCDKTHTCPPCPAPEAEGAPSVFLFPPKPKDTLMISRTPEVTCVVVDVSHEDPEVKFNWYVDGVEVHNAKTKPREEQYNSTYRVVSVLTVLHQDWLNGKEYKCKVSNKALPAPIEKTISKAKGQPREPQVYTLPPSREEMTKNQVSLTCLVKGFYPSDIAVEWESNGQPENNYKTTPPVLDSDGSFFLYSKLTVDKSRWQQGNVFSCSVMHEALHNHYTQKSLSLSPG light: not shown | 0.87 |  |  |  | 0.73 | 0.00049 | 680000 |  |  |  | 0.18 | 0.00028 | 1.6e+06 |  |  |  |  |  |  |  | 
6 | P8-V1 (antibody, human IgG1, kappa, V domains shown, Variant of P8) VH: QVQLVQSGAEVKKPGASVKVSCKASGYTFTSYYMHWVRQAPGQGLEWMGIINPRGGYTTYAQKFQGRVTMTRDTSTSTVYMELSSLRSEDTAVYYCAKEGRVSPTDYYGMDVWGQGTTVTVSS VL: not shown | 1.09 |  |  |  | 0.8 | 0.00047 | 580000 |  |  |  | 0.22 | 0.00028 | 1.3e+06 |  |  |  |  |  |  |  | 
